This passage reports abundance fitness results from the Human Domainome abundance scans (Beltran et al. 2025).

First the molecules themselves.
B1: Telomeric repeat-binding factor 2, residues 489 to 542; numbered along this chain, Q15554 (parent)
chain: KQKWTVEESEWVKAGVQKYGEGNWAAISKNYPFVNRTAVMIKDRWRTMKRLGMN

± gives the uncertainty stated by the source.

Variants of B1 are the subject of this series. Nature of the series: abundance fitness (aPCA) (normalised: wild type 0, dead -1); higher = more abundant; growth selection in yeast, the domain comes from the species named. The note with it: Homo sapiens.
Regarding V39C, the abundance fitness was 0.203 ± 0.086.

As to V39M, the abundance fitness worked out at 0.1 ± 0.1.

For the variant V39R, the abundance fitness turned out to be 0.032 ± 0.061.

In the case of V39T, the abundance fitness was 0.135 ± 0.06.

Take K18Q: the abundance fitness is -0.07 ± 0.11.

On to K18N, for which the abundance fitness was -0.435 ± 0.18.

Turning to K18G, the abundance fitness was -0.616 ± 0.14.

K18C: the abundance fitness is -0.403 ± 0.34.

Regarding K18E, the abundance fitness was -0.233 ± 0.11.

S28T: the abundance fitness came to 0.038 ± 0.14.

As to S28W, the abundance fitness was determined as 0.036 ± 0.095.

Regarding S28V, the abundance fitness came out at 0.121 ± 0.076.

On to S28Q, for which the abundance fitness came to 0.11 ± 0.13.

For the variant S28I, the abundance fitness worked out at 0.196 ± 0.14.

Regarding S28D, the abundance fitness was -0.887 ± 0.42.

In the case of S28P, the abundance fitness is -0.726 ± 0.31.

With S28Y, the abundance fitness was -0.458 ± 0.3.

Take S28K: the abundance fitness came to 0.114 ± 0.068.

Consider S28M, for which the abundance fitness was -0.568 ± 0.26.

On to R36V, for which the abundance fitness was -0.4 ± 0.051.

On to R36A, for which the abundance fitness was -0.367 ± 0.069.

For R36I, the abundance fitness was -0.685 ± 0.33.

For R36T, the abundance fitness is -0.853 ± 0.25.

For the variant R36Q, the abundance fitness was -0.897 ± 0.28.

As to L51A, the abundance fitness was -0.043 ± 0.08.

As for L51C, the abundance fitness is -0.171 ± 0.096.

With L51S, the abundance fitness is -0.025 ± 0.054.

Regarding L51E, the abundance fitness is 0.283 ± 0.075.

Take L51V: the abundance fitness was 0.006 ± 0.05.

On to L51T, for which the abundance fitness was determined as 0.101 ± 0.09.

For the variant L51Q, the abundance fitness amounted to 0.036 ± 0.064.

Take T47P: the abundance fitness is -0.67 ± 0.19.

Regarding T47D, the abundance fitness turned out to be 0.145 ± 0.12.

Regarding T47M, the abundance fitness was -0.18 ± 0.05.

For T47I, the abundance fitness is -0.094 ± 0.1.

Turning to T47S, the abundance fitness was -0.017 ± 0.079.

Consider F33V, for which the abundance fitness was -0.604 ± 0.075.

Take F33H: the abundance fitness is -0.212 ± 0.26.

With F33P, the abundance fitness was -0.871 ± 0.087.

Consider F33T, for which the abundance fitness was -0.826 ± 0.19.

As for F33Q, the abundance fitness is -0.817 ± 0.28.

Turning to F33R, the abundance fitness is -0.845 ± 0.079.

Turning to F33I, the abundance fitness is -0.834 ± 0.34.

As to F33K, the abundance fitness was -0.715 ± 0.21.

For S9G, the abundance fitness was -0.354 ± 0.058.

Turning to S9R, the abundance fitness was -0.671 ± 0.096.

Take S9T: the abundance fitness was -0.15 ± 0.13.

Regarding K49E, the abundance fitness is -0.235 ± 0.054.

Take K49Q: the abundance fitness was -0.054 ± 0.16.

Turning to K49D, the abundance fitness was -0.507 ± 0.14.

With K49N, the abundance fitness is -0.597 ± 0.16.

With K49W, the abundance fitness was -0.334 ± 0.22.

K49S: the abundance fitness is -0.286 ± 0.056.

With K49T, the abundance fitness was -0.142 ± 0.045.

K49F: the abundance fitness is -0.535 ± 0.14.

On to K1G, for which the abundance fitness was -0.585 ± 0.23.

For K1C, the abundance fitness was -0.578 ± 0.31.

Take N35M: the abundance fitness is -0.555 ± 0.12.

Take N35P: the abundance fitness is -1.09 ± 0.34.

For E7M, the abundance fitness was -0.015 ± 0.11.

Consider E7A, for which the abundance fitness is -0.242 ± 0.063.

For E7P, the abundance fitness is -0.401 ± 0.055.

Turning to E7V, the abundance fitness is -0.459 ± 0.083.

E7L: the abundance fitness is -0.258 ± 0.068.

With E7W, the abundance fitness is -0.443 ± 0.078.

Consider E7F, for which the abundance fitness is -0.47 ± 0.046.

On to W11M, for which the abundance fitness was -0.111 ± 0.11.

With W11A, the abundance fitness was -0.352 ± 0.095.

Take W11R: the abundance fitness is -0.553 ± 0.083.

In the case of W11S, the abundance fitness was -0.321 ± 0.06.

In the case of W11Y, the abundance fitness is -0.191 ± 0.071.

On to W11H, for which the abundance fitness is -0.294 ± 0.16.

Take W11V: the abundance fitness was -0.47 ± 0.048.

As for G22I, the abundance fitness is -0.595 ± 0.29.

Take G22R: the abundance fitness was -0.261 ± 0.1.

Turning to G22T, the abundance fitness is -0.467 ± 0.35.

With G22K, the abundance fitness was -0.418 ± 0.16.

As for G22Y, the abundance fitness was -0.204 ± 0.068.

Take G22W: the abundance fitness was -0.695 ± 0.17.

In the case of G22V, the abundance fitness was -0.489 ± 0.07.

Take W4M: the abundance fitness was -0.27 ± 0.21.

As for W4P, the abundance fitness is -0.216 ± 0.28.

Consider W4Q, for which the abundance fitness is -0.266 ± 0.17.

With W4R, the abundance fitness was -0.747 ± 0.19.

Take W4E: the abundance fitness was -0.126 ± 0.22.

On to W4D, for which the abundance fitness is -0.171 ± 0.33.

For W4K, the abundance fitness was -0.426 ± 0.38.

As to W4I, the abundance fitness is -0.131 ± 0.1.

For the variant W4Y, the abundance fitness was -0.325 ± 0.059.

Consider W4S, for which the abundance fitness was -0.248 ± 0.098.

As for W4C, the abundance fitness was -0.599 ± 0.23.

Regarding M40H, the abundance fitness was -0.119 ± 0.23.

Consider M40D, for which the abundance fitness turned out to be 0.106 ± 0.057.

Regarding M40T, the abundance fitness was -0.52 ± 0.058.

In the case of M40N, the abundance fitness is -0.53 ± 0.18.

As to M40F, the abundance fitness was determined as 0.11 ± 0.12.

As for M40K, the abundance fitness is -0.377 ± 0.13.

In the case of M40Y, the abundance fitness was -0.869 ± 0.39.

On to M40C, for which the abundance fitness is 0.169 ± 0.095.

For the variant V34F, the abundance fitness was -0.129 ± 0.064.

For the variant V34T, the abundance fitness stood at 0.193 ± 0.12.

Take V34K: the abundance fitness was -0.304 ± 0.21.

As for V34L, the abundance fitness was -0.057 ± 0.071.

V34E: the abundance fitness turned out to be 0.005 ± 0.044.

As to V34M, the abundance fitness stood at 0.208 ± 0.11.

Consider V34A, for which the abundance fitness is -0.16 ± 0.044.

For V34P, the abundance fitness was -0.49 ± 0.092.

On to V34N, for which the abundance fitness is -0.564 ± 0.22.

Take N54S: the abundance fitness is -0.051 ± 0.13.

Consider N54F, for which the abundance fitness is -0.537 ± 0.28.

On to N54D, for which the abundance fitness was -0.038 ± 0.22.

Take N54I: the abundance fitness was -0.032 ± 0.12.

For Y19I, the abundance fitness is -0.051 ± 0.34.

With Y19L, the abundance fitness was -0.51 ± 0.088.

As to Y19W, the abundance fitness was -0.557 ± 0.085.

Take Y19S: the abundance fitness was -0.375 ± 0.071.

As for Y19H, the abundance fitness was -0.28 ± 0.079.

Take Y19K: the abundance fitness was -0.004 ± 0.13.

Take Y19M: the abundance fitness is -0.464 ± 0.26.

M53A: the abundance fitness was -0.134 ± 0.068.

As to M53L, the abundance fitness worked out at 0.026 ± 0.079.

Turning to M53Y, the abundance fitness is -0.686 ± 0.31.

Take M53H: the abundance fitness was -0.249 ± 0.3.

With M53R, the abundance fitness is -0.311 ± 0.072.

For the variant M53K, the abundance fitness was -0.269 ± 0.19.

As for M53I, the abundance fitness was -0.141 ± 0.12.

With A38K, the abundance fitness was -0.297 ± 0.1.

A38R: the abundance fitness is -0.575 ± 0.075.

For the variant A38S, the abundance fitness was -0.204 ± 0.054.

On to A38H, for which the abundance fitness is -0.413 ± 0.19.

As to A38C, the abundance fitness is -0.336 ± 0.1.

Consider E10W, for which the abundance fitness is -0.414 ± 0.11.

Consider E10C, for which the abundance fitness was -0.277 ± 0.065.

Turning to E10H, the abundance fitness worked out at 0.044 ± 0.16.

With E10V, the abundance fitness was -0.359 ± 0.12.

For E10I, the abundance fitness was -0.529 ± 0.17.

E10K: the abundance fitness is -0.314 ± 0.095.

Consider K3W, for which the abundance fitness is -0.33 ± 0.093.

K3E: the abundance fitness was -0.175 ± 0.17.

For the variant K3T, the abundance fitness is -0.052 ± 0.048.

For K3G, the abundance fitness was -0.268 ± 0.056.

As for K3P, the abundance fitness is -0.01 ± 0.058.

With K3F, the abundance fitness was -0.258 ± 0.26.

On to K3M, for which the abundance fitness was 0.339 ± 0.11.

On to A25I, for which the abundance fitness was -0.217 ± 0.39.

Consider A25M, for which the abundance fitness is -0.018 ± 0.13.

Consider A25C, for which the abundance fitness was -0.091 ± 0.15.

A25D: the abundance fitness amounted to 0.472 ± 0.24.

On to A25H, for which the abundance fitness was -0.127 ± 0.22.

On to P32Y, for which the abundance fitness is -0.864 ± 0.068.

As to P32M, the abundance fitness is -0.565 ± 0.04.

With P32V, the abundance fitness is -0.747 ± 0.04.

With P32Q, the abundance fitness was -0.501 ± 0.044.

Consider P32F, for which the abundance fitness was -0.746 ± 0.045.

Turning to P32L, the abundance fitness is -0.726 ± 0.037.

Take R46H: the abundance fitness amounted to 0.011 ± 0.12.

Consider R46V, for which the abundance fitness is 0.005 ± 0.039.

With R46Y, the abundance fitness turned out to be 0.181 ± 0.072.

Take R46S: the abundance fitness came out at 0.043 ± 0.06.

For R46I, the abundance fitness came to 0.015 ± 0.12.

Consider D43K, for which the abundance fitness amounted to 0.011 ± 0.11.

As to D43N, the abundance fitness was -0.061 ± 0.1.

D43W: the abundance fitness is -0.502 ± 0.073.

In the case of D43Y, the abundance fitness was -0.364 ± 0.12.

In the case of D43Q, the abundance fitness was -0.07 ± 0.11.

Regarding Y31E, the abundance fitness is -0.757 ± 0.12.

Regarding Y31Q, the abundance fitness was -0.751 ± 0.05.
